Reference: patent US20040180360, “Multivalent aptamer therapeutics with improved pharmacodynamic properties and methods of making and using the same” (published 2004)

Columns and labels:
TGFβ2 = target: T1, TGFβ2 (UniProt P61812 P61812:303-414); assay: competition; monodentate control with 5-bp extension; competes similarly to bidentates with linkers of 30 nt or more; conditions: chain copies: 2 (inferred, homodimer)
T1 sequence: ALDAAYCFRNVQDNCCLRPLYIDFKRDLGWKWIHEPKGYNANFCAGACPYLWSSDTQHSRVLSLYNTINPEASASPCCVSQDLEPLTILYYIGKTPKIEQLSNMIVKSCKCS

PDGF-BB [1] = target: T2, PDGF-BB (UniProt P01127 P01127:82-190); assay: 10 or 100 nM splint DNA enhances affinity of bidentate aptamer; conditions: chain copies: 2 (inferred, homodimer); linker region hybridised to 40-nt splint oligonucleotide
Text: (§1) High molecular weight aptamer compositions capable of binding to platelet derived growth factor (PDGF) were produced using the following methods. A dimeric, or bidentate PDGF aptamer having the sequence shown in FIG. 4(A) was synthesized using standard reagents (oligonucleotides supplied by Integrated DNA Technologies, Coralville, Iowa). As shown in FIG. 4(B), the enhanced affinity of the bidentate aptamer to its target (either PDGF BB or AB) was greatest at higher protein concentrations where the binding conditions were 25° C. in 1×PBS with an RNA ligand concentration of <10 pM. […] This enhancement could reflect a splint-dependent reduction in rotational degrees of freedom within the linker region, leading to an increase in the effective concentration of the bidentate ligand. The addition of splint DNA to the monovalent aptamer to PDGF-BB had no effect on binding affinity (FIG. 5).

PDGF-BB [2] = target: T2, PDGF-BB; assay: enhanced affinity vs monomer, greatest at higher protein concentration; 1x PBS, 25 C, ligand <10 pM; conditions: chain copies: 2 (inferred, homodimer)
Text: as §1

PDGF-AB = PDGF-AB (UniProt P04085;P01127 P04085:87-211,P01127:82-190); assay: enhanced affinity stated for PDGF BB or AB; 1x PBS, 25 C, ligand <10 pM
Text: as §1

T2 sequence (P01127 82-190, one chain of several): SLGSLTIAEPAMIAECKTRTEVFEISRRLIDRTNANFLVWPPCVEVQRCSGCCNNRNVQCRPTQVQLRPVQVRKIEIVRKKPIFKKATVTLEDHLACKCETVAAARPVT
Chain of PDGF-AB (P01127 82-190, chain 2 of 2, other chains not shown): as the sequence (P01127 82-190, one chain of several) above

Binder: GCGCCGAGGUUAUUACAGAGUCUGUAUAGCUGUACUCGGCGC (ssRNA, 2'-F pyrimidines (inferred)) [ARC77 with 5-bp terminal extension]
- binding result (TGFβ2): binds

B1: PDGF bidentate aptamer + splint DNA (structured_DNA)
DNA 1: TACTCAGGGCACTGCAAGCAATTGTGGTCCCAATGGGCTGAGTATGTGGTCTATGTCGTCGTTCGCTAGTAGTTCCTGGGCTGCACTCGAGGCGTAGAATTCCCCCGATGCGCGCTGTTCTTACTCAGGGCACTGCAAGCAATTGTGGTCCCAATGGGCTGAGTAT
DNA 2: AAAGGAATTCTACGCCTCGAGTGCAGCCCAGGAACTATTT
- binding result (PDGF-BB [1]): binds

B2: PDGF bidentate aptamer (ssDNA)
DNA: TACTCAGGGCACTGCAAGCAATTGTGGTCCCAATGGGCTGAGTATGTGGTCTATGTCGTCGTTCGCTAGTAGTTCCTGGGCTGCACTCGAGGCGTAGAATTCCCCCGATGCGCGCTGTTCTTACTCAGGGCACTGCAAGCAATTGTGGTCCCAATGGGCTGAGTAT
- binding result (PDGF-BB [2]): binds
- binding result (PDGF-AB): binds
